Reference: the Immune Epitope Database (IEDB)
Blank lines part the entries; values can stand above or below the sequence they belong to.

Key:
HLA-B*40:01 = test: IEDB peptide-MHC binding, purified MHC/direct/fluorescence; filed as Kd, often an IC50 or EC50 that approximates it; ≥ and ≤ were set here for values at or beyond the usual limits of such assays
HLA-B*08:01 = test: as above
HLA-A*69:01 [1] = test: as above
HLA-A*11:01 = test: as above
HLA-B*15:01 [2] = test: as above
HLA-A*03:01 [3] = test: as above
HLA-A*30:01 = test: as above
HLA-B*27:05 = test: as above
HLA-A*01:01 = test: as above
HLA-A*26:01 [4] = test: as above
HLA-B*07:02 = test: as above
HLA-A*02:01 [5] = test: as above
HLA-B*58:01 = test: as above
HLA-A*24:03 = test: as above
HLA-A*31:01 = test: as above
HLA-A*02:16 = test: as above; conditions: source organism: Zaire ebolavirus
HLA-A*02:19 [6] = test: as above; conditions: source organism: Zaire ebolavirus
HLA-A*02:03 = test: as above; conditions: source organism: Zaire ebolavirus
HLA-A*68:02 [7] = test: as above; conditions: source organism: Zaire ebolavirus
HLA-A*29:02 = test: as above
HLA-A*02:12 [8] = test: as above; conditions: source organism: Zaire ebolavirus
HLA-A*02:11 = test: as above; conditions: source organism: Zaire ebolavirus
HLA-B*51:01 [9] = test: IEDB peptide-MHC binding, purified MHC/competitive/fluorescence; filed as Kd, often an IC50 or EC50 that approximates it; ≥ and ≤ were set here for values at or beyond the usual limits of such assays
HLA-A*69:01 [10] = test: as above
HLA-B*27:03 = test: as above
HLA-B*15:01 [11] = test: as above
HLA-B*39:01 [12] = test: as above
HLA-B*15:17 = test: as above
HLA-B*57:01 [13] = test: as above
HLA-B*46:01 [14] = test: as above
HLA-A*26:01 [15] = test: as above
HLA-B*18:01 [16] = test: as above
HLA-A*02:01 [17] = test: as above
HLA-B*48:01 = test: IEDB peptide-MHC binding, purified MHC/direct/fluorescence; filed as Kd, often an IC50 or EC50 that approximates it; ≥ and ≤ were set here for values at or beyond the usual limits of such assays; conditions: source organism: Mycobacterium tuberculosis
HLA-B*39:01 [18] = test: as above; conditions: source organism: Mycobacterium tuberculosis
HLA-B*57:01 [19] = test: as above; conditions: source organism: Mycobacterium tuberculosis
HLA-B*46:01 [20] = test: as above; conditions: source organism: Mycobacterium tuberculosis
HLA-B*44:02 = test: as above; conditions: source organism: Mycobacterium tuberculosis
HLA-B*18:01 [21] = test: as above; conditions: source organism: Mycobacterium tuberculosis
HLA-A*02:19 [22] = test: IEDB peptide-MHC binding, purified MHC/competitive/fluorescence; filed as Kd, often an IC50 or EC50 that approximates it; ≥ and ≤ were set here for values at or beyond the usual limits of such assays; conditions: source organism: Homo sapiens
HLA-A*03:01 [23] = test: as above; conditions: source organism: Homo sapiens
HLA-A*68:02 [24] = test: as above; conditions: source organism: Homo sapiens
HLA-A*02:12 [25] = test: as above; conditions: source organism: Homo sapiens
HLA-B*53:01 = test: IEDB peptide-MHC binding, purified MHC/competitive/radioactivity; filed as Kd, often an IC50 or EC50 that approximates it; ≥ and ≤ were set here for values at or beyond the usual limits of such assays; conditions: source organism: Dengue virus 1 Brazil/97-11/1997
HLA-B*51:01 [26] = test: IEDB peptide-MHC binding, purified MHC/direct/fluorescence; filed as Kd, often an IC50 or EC50 that approximates it; ≥ and ≤ were set here for values at or beyond the usual limits of such assays
[27] = source organism: Pseudomonas aeruginosa
[28] = source organism: Zaire ebolavirus
[29] = source organism: Mycobacterium tuberculosis
[30] = source organism: Haemophilus influenzae
[31] = source organism: Yersinia pestis

- Kd (HLA-B*40:01; [27]): ≥ 20 µM
- Kd (HLA-B*08:01; [27]): ≥ 20 µM
- Kd (HLA-A*69:01 [1]; [27]): ≥ 20 µM
- Kd (HLA-A*11:01; [27]): 0.117 µM
- Kd (HLA-B*15:01 [2]; [27]): ≥ 20 µM
- Kd (HLA-A*03:01 [3]; [27]): 0.286 µM
- Kd (HLA-A*30:01; [27]): 0.344 µM
- Kd (HLA-B*27:05; [27]): 3.46 µM
- Kd (HLA-A*01:01; [27]): ≥ 20 µM
- Kd (HLA-A*26:01 [4]; [27]): ≥ 20 µM
- Kd (HLA-B*07:02; [27]): ≥ 20 µM
- Kd (HLA-A*02:01 [5]; [27]): ≥ 20 µM
- Kd (HLA-B*58:01; [27]): ≥ 20 µM
- Kd (HLA-A*24:03; [27]): ≥ 20 µM
- Kd (HLA-A*31:01; [27]): 0.0287 µM
Sequence: RSFAERLDR

Sequence: AFHQLVQVI
- Kd (HLA-A*02:16): ≥ 20 µM
- Kd (HLA-A*02:19 [6]): ≥ 20 µM
- Kd (HLA-A*02:03): ≥ 20 µM
- Kd (HLA-A*03:01 [3]; [28]): ≥ 20 µM
- Kd (HLA-A*68:02 [7]): ≥ 20 µM
- Kd (HLA-A*29:02; [28]): ≥ 20 µM
- Kd (HLA-A*02:12 [8]): ≥ 20 µM
- Kd (HLA-A*02:11): ≥ 20 µM
- Kd (HLA-A*24:03; source organism: Reston ebolavirus - Reston): 0.0021 µM
- Kd (HLA-B*51:01 [9]; [28]): ≥ 20 µM
- Kd (HLA-A*69:01 [10]; [28]): ≥ 20 µM
- Kd (HLA-B*27:03; [28]): ≥ 20 µM
- Kd (HLA-B*15:01 [11]; [28]): ≥ 20 µM
- Kd (HLA-B*39:01 [12]; [28]): ≥ 20 µM
- Kd (HLA-B*15:17; [28]): ≥ 20 µM
- Kd (HLA-B*57:01 [13]; [28]): ≥ 20 µM
- Kd (HLA-B*46:01 [14]; [28]): ≥ 20 µM
- Kd (HLA-A*26:01 [15]; [28]): ≥ 20 µM
- Kd (HLA-B*18:01 [16]; [28]): ≥ 20 µM
- Kd (HLA-A*02:01 [17]; [28]): ≥ 20 µM

Sequence: QQDTNSAGL
- Kd (HLA-B*48:01): ≥ 20 µM
- Kd (HLA-A*69:01 [1]; [29]): ≥ 20 µM
- Kd (HLA-B*15:01 [2]; [29]): ≥ 20 µM
- Kd (HLA-B*39:01 [18]): 0.301 µM
- Kd (HLA-A*03:01 [3]; [29]): ≥ 20 µM
- Kd (HLA-B*57:01 [19]): ≥ 20 µM
- Kd (HLA-B*46:01 [20]): ≥ 20 µM
- Kd (HLA-B*27:05; [29]): ≥ 20 µM
- Kd (HLA-A*01:01; [29]): ≥ 20 µM
- Kd (HLA-A*29:02; [29]): ≥ 20 µM
- Kd (HLA-B*44:02): ≥ 20 µM
- Kd (HLA-B*07:02; [29]): ≥ 20 µM
- Kd (HLA-B*18:01 [21]): ≥ 20 µM
- Kd (HLA-B*58:01; [29]): ≥ 20 µM
- Kd (HLA-A*31:01; [29]): ≥ 20 µM

- Kd (HLA-B*51:01 [9]; source organism: Homo sapiens): ≥ 20 µM
- Kd (HLA-A*02:19 [22]): ≥ 20 µM
- Kd (HLA-A*69:01 [10]; source organism: Homo sapiens): ≥ 20 µM
- Kd (HLA-B*27:03; source organism: Homo sapiens): ≥ 20 µM
- Kd (HLA-B*15:01 [11]; source organism: Homo sapiens): ≥ 20 µM
- Kd (HLA-B*39:01 [12]; source organism: Homo sapiens): ≥ 20 µM
- Kd (HLA-A*03:01 [23]): ≥ 20 µM
- Kd (HLA-B*15:17; source organism: Homo sapiens): ≥ 20 µM
- Kd (HLA-B*57:01 [13]; source organism: Homo sapiens): ≥ 20 µM
- Kd (HLA-B*46:01 [14]; source organism: Homo sapiens): ≥ 20 µM
- Kd (HLA-A*68:02 [24]): ≥ 20 µM
- Kd (HLA-A*02:12 [25]): ≥ 20 µM
- Kd (HLA-A*26:01 [15]; source organism: Homo sapiens): ≥ 20 µM
- Kd (HLA-B*18:01 [16]; source organism: Homo sapiens): ≥ 20 µM
- Kd (HLA-A*02:01 [17]; source organism: Homo sapiens): 0.196 µM
Sequence: SLFNWLWYE

Sequence: CPTQGEATL
- Kd (HLA-B*53:01): 0.0199 µM
- Kd (HLA-B*51:01 [26]; source organism: Dengue virus): ≥ 20 µM

- Kd (HLA-B*40:01; [30]): ≥ 20 µM
- Kd (HLA-B*08:01; [30]): 5.63 µM
- Kd (HLA-A*69:01 [1]; [30]): ≥ 20 µM
- Kd (HLA-A*11:01; [30]): 0.0142 µM
- Kd (HLA-B*15:01 [2]; [30]): ≥ 20 µM
- Kd (HLA-A*03:01 [3]; [30]): 0.0531 µM
- Kd (HLA-A*30:01; [30]): 0.00063 µM
- Kd (HLA-B*27:05; [30]): ≥ 20 µM
- Kd (HLA-A*01:01; [30]): 14.5 µM
- Kd (HLA-A*26:01 [4]; [30]): ≥ 20 µM
- Kd (HLA-B*07:02; [30]): ≥ 20 µM
- Kd (HLA-A*02:01 [5]; [30]): ≥ 20 µM
- Kd (HLA-A*24:03; [30]): ≥ 20 µM
- Kd (HLA-A*31:01; [30]): 0.0202 µM
Sequence: MTMRRRLFK

Sequence: LPLEFWQAW
- Kd (HLA-B*51:01 [26]; [31]): ≥ 20 µM
- Kd (HLA-B*15:01 [2]; source organism: Yersinia enterocolitica subsp. enterocolitica 8081): ≥ 20 µM
- Kd (HLA-B*07:02; [31]): 0.235 µM
